Experimental data: patent US20220143140A1, “ANTI-CD6 ANTIBODY COMPOSITIONS AND METHODS FOR TREATING LUPUS” (Equillium, Inc., priority 2019, published 2022)

Test system: subjects with active lupus nephritis
Test: Clinical trial: urinary soluble CD6 and soluble ALCAM before and after EQ001
Assay type: in vivo, human
Protocol: 30 ml of urine is collected from a patient (or control individual) and treated with a protease inhibitor cocktail tablet on ice (MiliporeSigma, Burlington, Mass., USA) according to manufacturer's instructions. The sample is centrifuged at 10,000×g for 1 min or 5,000×g for 2 min, and the urine is removed from any pellet, aliquoted, and quick frozen in a dry ice/methanol bath and stored at −80° C. until use.
Several suitable ELISA kits are available commercially and are suitable for use in detecting soluble ALCAM and soluble CD6. For example, human ALCAM DuoSet ELISA (R&D Systems, Minneapolis, Minn.) is utilized according to the manufacturer's instructions to measure soluble ALCAM in a urine sample, and quantification is performed by generating a standard curve. Human CD6 ELISA kit (Sandwich ELISA)(LifeSpan BioSciences, Inc, Seattle, Wash.) is utilized according to the manufacturer's instructions to measure soluble CD6 in a urine sample, and quantification is performed by generating a standard curve.
In order to determine whether high urinary levels of soluble CD6 and soluble ALCAM can be used as a biomarker for sensitivity to treatment with EQ001, a clinical trial is performed in which concentrations of these markers are analyzed in the urine of subjects with active lupus nephritis before and after treatment with EQ001.
Urine samples are collected from the subjects biweekly for 2-3 months to establish individual baseline urinary soluble CD6 and soluble ALCAM concentrations. Treatment is initiated after at least five baseline measurements are obtained. Subjects receive EQ001 or vehicle administered intravenously every two weeks for a total of 5 doses, and a urine sample is collected 3 days after initial dosing, and twice weekly thereafter over the course of the study, which continues for 20 weeks post-initial treatment.
As described above, immediately after collection, samples are treated, aliquoted, and frozen in accordance with the above method, and upon the completion of the study, samples are tested by ELISA.

[1] = Cohort 4, active lupus nephritis, iv every two weeks, 5 doses, ELISA

B1: EQ001: itolizumab, humanized anti-CD6 antibody, produced in CHO cells; VH/VK SEQ ID NOS: 1 and 2 (antibody, V domains shown)
VH: EVQLVESGGGLVKPGGSLKLSCAASGFKFSRYAMSWVRQAPGKRLEWVATISSGGSYIYYPDSVKGRFTISRDNVKNTLYLQMSSLRSEDTAMYYCARRDYDLDYFDSWGQGTLVTVSS
VL: DIQMTQSPSSLSASVGDRVTITCKASRDIRSYLTWYQQKPGKAPKTLIYYATSLADGVPSRFSGSGSGQDYSLTISSLESDDTATYYCLQHGESPFTLGSGTKLEIK
modifications: Made in Lab - synthesized VH amino acid sequence; Made in Lab - synthesized VK amino acid sequence
[1]
  urinary soluble ALCAM levels: significant decreases
  urinary soluble CD6 levels: significant decreases
Subjects with the highest basal levels
  response to treatment by basal soluble CD6 and soluble ALCAM: respond most dramatically
